Experimental findings from patent US20240115742A1, “FLUORINATED FIBERS FOR MULTIMODAL 1H AND 19F MRI, ULTRASOUND, FLUORESCENCE DETECTION AND CONFORMATIONAL AND TEMPERATURE DETECTION BY 19F MRS” (New York University, priority 2022, published 2024) are described below.

Square brackets hold non-standard residues; d marks the D form. Ends that are not written are not given here. LTF = trifluoroleucine

Format in all cases: physicochemical
Data set [1] in a line: Tube inversion concentration-temperature phase diagram. Particulars: for UCST: at solubility limit, extent of gelation η 0.5; for solubility limit: 50 mM Tris, 500 mM NaCl, pH 8.0. The protocol: Tube Inversion Test. Immediately after concentration to 2 mM, the protein was incubated at 4° C. over the course of two weeks after aliquoting 150 μL into a 2 mL Eppendorf tube. The samples were visually assessed for gelation by inverting the tubes at 12-hour time intervals thereafter, with gelled samples not flowing upon inversion.
Gelation. To study the relative gelation of Q2 as compared to the previously reported coiled-coil hydrogel, Q, protein was successfully expressed (FIG. 24), purified (FIG. 25), and concentrated to 2 mM (1% w/v) in Tris buffer (50 mM Tris, 500 mM NaCl) at pH 8.0. Purity of the protein was measured to be >99% by SDS-PAGE (FIG. 26) and concentration was measured by BCA assay. Immediately following concentration, the gelation process of Q2 was studied using the microrheology assay described previously following incubation at 4° C. Separately, 150 μL samples were aliquoted for tube inversion tests performed after 2 weeks of incubation for visual assessment of gelation over time at 4° C. (FIG. 19a-d) and at concentrations from 1 mM to 3.5 mM with temperatures 5° C. to 25° C. using 0.5 mM and 5° C. step sizes, respectively, to create a matrix-based phase diagram (FIG. 19e). Temperature and concentration ranges were selected based on preliminary tube-inversion testing at high and low ends of the ranges.
Thermoresponsiveness and material strength. UCST behavior of protein hydrogels was assessed by testing […] samples via tube inversion in 2 mL microtubes after incubation for two weeks at various temperatures and concentrations. Temperature conditions were modulated in the range of 5-40° C. The concentration range was modified depending on if precipitation was visually noticeable in the microtube at an earlier concentration, indicating a solubility limit to our phase diagram, as has been done previously. […] As done with Q2, the UCST of the hydrogels was determined using a bivariate linear relationship for the extent of gelation where tubes that passed gelation by tube inversion were assigned a value of 1 (shown in black in FIG. 52a and FIG. 64a-d) and tubes that failed gelation by tube inversion (shown in red in FIG. 52a and FIG. 64a-d) were assigned a value of 0. The heatmap in FIG. 52a and FIG. 64a-d was used to denote the range of extent of gelation where the equation was employed to solve for the UCST using the solubility limit and solving for an extent of gelation, η, value of 0.5. The UCSTs (FIG. 52b) for the hydrogels studied here were 13.0° C., 35.9° C., 33.6° C., 17.5° C., and 22.9° C. for Q3-7, respectively, as compared to 17.0° C. for Q and 22.0° C. for Q2 found previously. Bivariate regression allowed for solving the coefficients for the dependence of temperature and concentration on gelation.
Tube Inversion. Binary sol-gel behavior was assessed using tube inversion. Immediately after concentration to 2 mM, 150 μL of Q hydrogel variants were incubated in 2 mL microtubes at 4° C. for two weeks. Gelation was visually observed by inverting the microtube and inspecting the sample for flow from the top of tube.

Data set [2] can be described thus: CD temperature scans (melting temperature). On the procedure:
Circular Dichroism Spectroscopy. Secondary structure was first assessed using the Jasco J-815 CD spectrometer with a PTC-423S single position Peltier temperature control system. Wavelength scans were performed from 190 to 250 nm using 15 μM samples at 1 nm step sizes at 25° C. Temperature scans were performed at α-helical minimum 222 nm from 20 to 85° C. The mean residue ellipticity (MRE) was calculated as described previously. MRE at 222 nm and 208 nm and their ratios were used to assess relative helicity.
Circular Dichroism Spectroscopy. The secondary structure of Q2LTF and QLTF was assessed using a Jasco J-815 circular dischroism (CD) spectrometer with a PTC-423S single position Peltier temperature control system. Wavelength scans were performed from 195 to 250 nm at 1 nm step sizes by diluting the protein into water (at approximately 10 μM) in order to minimize the effects of sodium chloride. […] The mean residue ellipticity (MRE) was calculated as described.

The nature of data set [3]: ATR-FTIR peak deconvolution of secondary structure. The protocol: Attenuated Total Reflectance-Fourier Transform Infrared Spectroscopy. Secondary structure of protein fiber variants was confirmed using attenuated total reflectance-Fourier transform infrared (ATR-FTIR) spectroscopy using the Nicolet 6700 Fourier Transform Infrared Spectrometer equipped with a diamond ATR accessory and a mercury cadmium telluride (MCT)-A detector. Spectra were collected for 5 μL of 500 μM protein from 4000-400 cm^−1 with 0.5 cm^−1 increments at room temperature (RT). For CCM bound protein, protein was bound at a final concentration of 500 μM and saturated with CCM as determined by fluorescent spectroscopic drug binding with a final 1% v/v DMSO. Sample spectra were normalized using buffer background and analyzed from 1700-1600 cm^−1 corresponding to the amide I region. Peaks were deconvoluted using Gaussian functions in PeakFit software until the goodness of fit reached r^2≥0.99. Peaks were associated with secondary structure were determined by methods known in the art.
(§1) Attenuated Total Reflectance-Fourier Transform Infrared Spectroscopy. Secondary structure of Q2 protein was confirmed using attenuated total reflectance-Fourier transform infrared (ATR-FTIR) spectroscopy using the Nicolet 6700 Fourier Transform Infrared Spectrometer equipped with a diamond ATR accessory and a mercury cadmium telluride (MCT)-A detector. Spectra were collected for 5 μL of 2 mM protein from 4000-400 cm^−1 with 0.5 cm^−1 increments. Sample spectra were normalized using buffer background and analyzed from 1700-1600 cm^−1 corresponding to the amide I region. Peaks were deconvoluted using Gaussian functions in PeakFit software until the goodness of fit reached r^2>0.99.
as §1, with “of Q2LTF and QLTF” for “of Q2”, “using a” for “using the”, “of 1” for “of 2”, “with 4.0” for “with 0.5”, “reached r^2≥0.99.” for “reached r^2>0.99.”
Attenuated Total Reflectance-Fourier Transform Infrared Spectroscopy. Secondary structure before (solution) and after gelation (gel) was also assessed by peak deconvolution of attenuated total reflectance-Fourier transform infrared (ATR-FTIR) spectra. ATR-FTIR measurements were performed using a Nicolet 6700 Fourier Transform Infrared Spectrometer equipped with a mercury cadmium telluride (MCT)-A detector. Spectra were collected for 5 μL samples of protein at 2 mM from 4000-400 cm^−1 with a 4.0 cm^−1 resolution, normalized, and buffer-subtracted prior to analysis from 1700-1600 cm^−1, corresponding to the amide I region. ATR-FTIR measurements were performed immediately after concentration to 2 mM for solution measurements and after. Peaks were deconvoluted using Gaussian functions in PeakFit software until the goodness of fit reached r^2≥0.99.

Substance “Q3: Q variant with V44I pore mutation, SEQ ID NO: 12 (MRGSHHHHHHGSIEGRVKEILFLKNTAYQMLLELKETNEALYDIRHLLQQQSKL) [Protein Q3]” came in with a UCST in data set [1] of 13.0 °C. Moreover, the melting temperature in data set [2] (CCM-bound, pH 4.0) is 61.9±2.0 °C; in data set [2] (native, 50 mM NaH2PO4 pH 4.0), 61.0±4.9 °C. Further, the aggregated strands in data set [3] (native) is reported as 5.2%; in data set [3] (w/CCM), 17.8%. Besides, the “antiparallel β-sheet/aggregated strands” value is reported as 6.8% in data set [3] (native) and 7.6% in data set [3] (w/CCM).
As for “Q5: Q hydrogel variant from Rosetta Monte Carlo search, SEQ ID NO: 14 (MRGSHHHHHHGSIEGRVKEITFIKKTIEQIAEEMKEINKAIHDIRHALENISKK) [Protein Q5]”, in data set [1], the solubility limit worked out at 3.5 mM and the UCST came out at 33.6 °C.
In data set [1], “Q: rationally designed pentameric coiled-coil derived from C, SEQ ID NO: 23 (MRGSHHHHHHGSIEGRVKEITFLKNTAPQMLRELQETNAALQDVRELLRQQSKL) [reference compound]” had a solubility limit of 3.5 mM and a UCST of 17.0 °C. Moreover, the melting temperature in data set [2] (CCM-bound, pH 4.0) was determined as 76.4±4.6 °C. In data set [2] (native, 50 mM NaH2PO4 pH 4.0), this substance displayed a melting temperature of 37.0±7.8 °C. In data set [3] (native), the aggregated strands is reported as 6.0% and the “antiparallel β-sheet/aggregated strands” value amounted to 13.0%. Besides, in data set [3] (w/CCM), the aggregated strands was determined as 15.4 ± 3.8% and the “antiparallel β-sheet/aggregated strands” value is reported as 7.8%.
For “Q2LTF: protein-engineered fluorinated coiled-coil fiber, Q2 with trifluoroleucine, SEQ ID NO: 20 (MRGSHHHHHHGSIEGRVKE[LTF][LTF]F[LTF]KKTAEQM[LTF]EE[LTF]KETNKA[LTF]HDVRH[LTF][LTF]ENQSK[LTF]; ends and bridges not checked) [Protein Q2LTF]”, the melting temperature in data set [2] (in only water) was 32.6±1.6 °C; in data set [2] (phosphate buffer (50 mM Na2HPO4, pH 8.0)) it was 65.0±2.9 °C. In data set [3], this substance showed a α-helical content of 42.4±8.6%. The “aggregated strands” value in data set [3] (fluorinated constructs, Tris buffer) is recorded as 6.8 % composition.
In data set [1], “Q2: coiled-coil protein redesigned from Q for reduced lateral assembly, SEQ ID NO: 11 (MRGSHHHHHHGSIEGRVKELLFLKKTAEQMLEELKETNKALHDVRHLLENQSKL) [Protein Q2]” came in with a solubility limit of 3.5 mM. The UCST in data set [1] was 22.0 °C. Also, the melting temperature in data set [2] (CCM-bound, pH 4.0) turned out to be 59.9±6.3 °C; in data set [2] (native, 50 mM NaH2PO4 pH 4.0) it was 43.4±4.0 °C. Besides, the “aggregated strands” value in data set [3] (Gel, 2 mM) worked out at 2.3 % composition; in data set [3] (Solution, 2 mM), 2.1 % composition; in data set [3] (native) it was 3.9%; in data set [3] (w/CCM), 10.6%. Also, the “antiparallel β-sheet/aggregated strands” value in data set [3] (native) is 20.6%; in data set [3] (w/CCM), 0.0%. Also, the “change in α-helical content upon gelation” value in data set [3] (solution to gel) is “+12.8%”.
